In article PMC2819637:
Values joined by “and” are separate entries in the source; they are usually repeats but may differ in a detail not shown here. Identical values can stand only once. Like-named read-outs stand apart in the source and are kept apart here.

Experiments:
[1] = target: phosphorylated monomeric PKR (pPKRm) (human) (UniProt P19525); assay: AUC
[2] = target: PKR (Homo sapiens) (UniProt P19525); conditions: cited from earlier work
[3] = target: PKR (Homo sapiens) (UniProt P19525); assay: analytical ultracentrifugation; conditions: cited from earlier work

Row | Substance | Kd [1] | Kd [2] | Kd [3]
1 | phosphorylated monomeric PKR (pPKRm) (from UniProt P19525 1-551) (enzyme) | 473 µM | – | –
2 | PKR (from UniProt P19525) | – | 500 µM and 450 µM | 0.95 µM
